In patent publication US12099068B2, “Biomarkers for graft-versus-host disease” (Incyte Corporation, priority 2018, dated 2024):

B1: HO-1 (protein, UniProt P09601 1-288, looked up)
Heme oxygenase 1: MERPQPDSMPQDLSEALKEATKEVHTQAENAEFMRNFQKGQVTRDGFKLVMASLYHIYVALEEEIERNKESPVFAPVYFPEELHRKAALEQDLAFWYGPRWQEVIPYTPAMQRYVKRLHEVGRTEPELLVAHAYTRYLGDLSGGQVLKKIAQKALDLPSSGEGLAFFTFPNIASATKFKQLYRSRMNSLEMTPAVRQRVIEEAKTAFLLNIQLFEELQELLTHDTKDQSPSRAPGLRQRASNKVQDSAPVETPRGKPPLNTRSQAPLLRWVLTLSFLVATVAVGLYAM
B2: PRELP (protein, UniProt P51888 21-382, looked up)
Prolargin: QPTRRPRPGTGPGRRPRPRPRPTPSFPQPDEPAEPTDLPPPLPPGPPSIFPDCPRECYCPPDFPSALYCDSRNLRKVPVIPPRIHYLYLQNNFITELPVESFQNATGLRWINLDNNRIRKIDQRVLEKLPGLVFLYMEKNQLEEVPSALPRNLEQLRLSQNHISRIPPGVFSKLENLLLLDLQHNRLSDGVFKPDTFHGLKNLMQLNLAHNILRKMPPRVPTAIHQLYLDSNKIETIPNGYFKSFPNLAFIRLNYNKLTDRGLPKNSFNISNLLVLHLSHNRISSVPAINNRLEHLYLNNNSIEKINGTQICPNDLVAFHDFSSDLENVPHLRYLRLDGNYLKPPIPLDLMMCFRLLQSVVI
B3: VSIG2 (protein, UniProt Q96IQ7 24-327, looked up)
V-set and immunoglobulin …: VEVKVPTEPLSTPLGKTAELTCTYSTSVGDSFALEWSFVQPGKPISESHPILYFTNGHLYPTGSKSKRVSLLQNPPTVGVATLKLTDVHPSDTGTYLCQVNNPPDFYTNGLGLINLTVLVPPSNPLCSQSGQTSVGGSTALRCSSSEGAPKPVYNWVRLGTFPTPSPGSMVQDEVSGQLILTNLSLTSSGTYRCVATNQMGSASCELTLSVTEPSQGRVAGALIGVLLGVLLLSVAAFCLVRFQKERGKKPKETYGGSDLREDAIAPGISEHTCMRADSSKGFLERPSSASTVTTTKSKLPMVV
B4: IDUA (protein, UniProt P35475 28-653, looked up)
Alpha-L-iduronidase: APHLVHVDAARALWPLRRFWRSTGFCPPLPHSQADQYVLSWDQQLNLAYVGAVPHRGIKQVRTHWLLELVTTRGSTGRGLSYNFTHLDGYLDLLRENQLLPGFELMGSASGHFTDFEDKQQVFEWKDLVSSLARRYIGRYGLAHVSKWNFETWNEPDHHDFDNVSMTMQGFLNYYDACSEGLRAASPALRLGGPGDSFHTPPRSPLSWGLLRHCHDGTNFFTGEAGVRLDYISLHRKGARSSISILEQEKVVAQQIRQLFPKFADTPIYNDEADPLVGWSLPQPWRADVTYAAMVVKVIAQHQNLLLANTTSAFPYALLSNDNAFLSYHPHPFAQRTLTARFQVNNTRPPHVQLLRKPVLTAMGLLALLDEEQLWAEVSQAGTVLDSNHTVGVLASAHRPQGPADAWRAAVLIYASDDTRAHPNRSVAVTLRLRGVPPGPGLVYVTRYLDNGLCSPDGEWRRLGRPVFPTAEQFRRMRAAEDPVAAAPRPLPAGGRLTLRPALRLPSLLLVHVCARPEKPPGQVTRLRALPLTQGQLVLVWSDEHVGSKCLWTYEIQFSQDGKAYTPVSRKPSTFNLFVFSPDTGAVSGSYRVRALDYWARPGPFSDPVPYLEVPVPRGPPSPGNP
B5: CEACAM5 (protein, UniProt P06731 35-685, looked up)
Cell adhesion molecule CEACAM5: KLTIESTPFNVAEGKEVLLLVHNLPQHLFGYSWYKGERVDGNRQIIGYVIGTQQATPGPAYSGREIIYPNASLLIQNIIQNDTGFYTLHVIKSDLVNEEATGQFRVYPELPKPSISSNNSKPVEDKDAVAFTCEPETQDATYLWWVNNQSLPVSPRLQLSNGNRTLTLFNVTRNDTASYKCETQNPVSARRSDSVILNVLYGPDAPTISPLNTSYRSGENLNLSCHAASNPPAQYSWFVNGTFQQSTQELFIPNITVNNSGSYTCQAHNSDTGLNRTTVTTITVYAEPPKPFITSNNSNPVEDEDAVALTCEPEIQNTTYLWWVNNQSLPVSPRLQLSNDNRTLTLLSVTRNDVGPYECGIQNELSVDHSDPVILNVLYGPDDPTISPSYTYYRPGVNLSLSCHAASNPPAQYSWLIDGNIQQHTQELFISNITEKNSGLYTCQANNSASGHSRTTVKTITVSAELPKPSISSNNSKPVEDKDAVAFTCEPEAQNTTYLWWVNGQSLPVSPRLQLSNGNRTLTLFNVTRNDARAYVCGIQNSVSANRSDPVTLDVLYGPDTPIISPPDSSYLSGANLNLSCHSASNPSPQYSWRINGIPQQHTQVLFIAKITPNNNGTYACFVSNLATGRNNSIVKSITVSASGTSPGLSA
B6: NCF2 (protein, UniProt P19878 1-526, looked up)
Neutrophil cytosol factor 2: MSLVEAISLWNEGVLAADKKDWKGALDAFSAVQDPHSRICFNIGCMYTILKNMTEAEKAFTRSINRDKHLAVAYFQRGMLYYQTEKYDLAIKDLKEALIQLRGNQLIDYKILGLQFKLFACEVLYNIAFMYAKKEEWKKAEEQLALATSMKSEPRHSKIDKAMECVWKQKLYEPVVIPVGKLFRPNERQVAQLAKKDYLGKATVVASVVDQDSFSGFAPLQPQAAEPPPRPKTPEIFRALEGEAHRVLFGFVPETKEELQVMPGNIVFVLKKGNDNWATVMFNGQKGLVPCNYLEPVELRIHPQQQPQEESSPQSDIPAPPSSKAPGRPQLSPGQKQKEEPKEVKLSVPMPYTLKVHYKYTVVMKTQPGLPYSQVRDMVSKKLELRLEHTKLSYRPRDSNELVPLSEDSMKDAWGQVKNYCLTLWCENTVGDQGFPDEPKESEKADANNQTTEPQLKKGSQVEALFSYEATQPEDLEFQEGDIILVLSKVNEEWLEGECKGKVGIFPKVFVEDCATTDLESTRREV
B7: SLITRK2 (protein, UniProt Q9H156 22-845, looked up)
SLIT and NTRK-like protein 2: RKTAKDICKIRCLCEEKENVLNINCENKGFTTVSLLQPPQYRIYQLFLNGNLLTRLYPNEFVNYSNAVTLHLGNNGLQEIRTGAFSGLKTLKRLHLNNNKLEILREDTFLGLESLEYLQADYNYISAIEAGAFSKLNKLKVLILNDNLLLSLPSNVFRFVLLTHLDLRGNRLKVMPFAGVLEHIGGIMEIQLEENPWNCTCDLLPLKAWLDTITVFVGEIVCETPFRLHGKDVTQLTRQDLCPRKSASDSSQRGSHADTHVQRLSPTMNPALNPTRAPKASRPPKMRNRPTPRVTVSKDRQSFGPIMVYQTKSPVPLTCPSSCVCTSQSSDNGLNVNCQERKFTNISDLQPKPTSPKKLYLTGNYLQTVYKNDLLEYSSLDLLHLGNNRIAVIQEGAFTNLTSLRRLYLNGNYLEVLYPSMFDGLQSLQYLYLEYNVIKEIKPLTFDALINLQLLFLNNNLLRSLPDNIFGGTALTRLNLRNNHFSHLPVKGVLDQLPAFIQIDLQENPWDCTCDIMGLKDWTEHANSPVIINEVTCESPAKHAGEILKFLGREAICPDSPNLSDGTVLSMNHNTDTPRSLSVSPSSYPELHTEVPLSVLILGLLVVFILSVCFGAGLFVFVLKRRKGVPSVPRNTNNLDVSSFQLQYGSYNTETHDKTDGHVYNYIPPPVGQMCQNPIYMQKEGDPVAYYRNLQEFSYSNLEEKKEEPATPAYTISATELLEKQATPREPELLYQNIAERVKELPSAGLVHYNFCTLPKRQFAPSYESRRQNQDRINKTVLYGTPRKCFVGQSKPNHPLLQAKPQSEPDYLEVLEKQTAISQL

Test system: plasma proteins
Assay: Plasma proteins modulated between baseline and day 28 in responders (CR, VGPR, PR; n = 19), Example 6 (Table 13)
Format: in vivo, human
Conditions: plasma protein (OLINK NPX); responders (CR, VGPR, PR; n = 19); itacitinib 200 mg or 300 mg QD with corticosteroids; day 28 vs baseline
In short: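 Longitudinal comparison, day 28 versus baseline, with steroid-naive (N=10) and steroid-refractory (N=18) patients combined. Proteins measured by OLINK proximity extension, log2 normalized protein expression. Differences tested by t tests, ANOVA, Pearson correlation, P<0.05 significant.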

Row | Molecule | Fold Change, Increased Expression from Baseline to Day 28 | Fold Change, Decreased Expression from Baseline to Day 28
1 | B1 | 1.3293 | –
2 | B2 | 1.1833 | –
3 | B3 | 1.2163 | –
4 | B4 | – | −1.3887
5 | B5 | 1.6422 | –
6 | B6 | – | −2.4951
7 | B7 | 1.2986 | –
